± gives the uncertainty stated by the source.
Experiment: amyloid nucleation score (Sup35N fusion, yeast selection) (log enrichment); library NNK2; higher = more nucleation; inactive = no reads after selection
Method in brief: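 Sup35N fusions to peptides of 20 random codons were expressed in psi-negative yeast, induced 24 hours with 100 μM copper sulfate, and grown 7 days at 30°C on medium lacking adenine and uracil. Input and output plasmid inserts were sequenced by Illumina. The nucleation score is the DiMSum log enrichment of output over input reads, centred on the mode score of non-aggregating sequences. Sequences with under 100 input reads were excluded.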

Row | Substance | amyloid nucleation score
1 | FPNDKLCNFFFDNNQSLARK | -1.31 ± 1
2 | CAGYMRRHFSAAVTWTWAEG | 1.22 ± 0.69
3 | SRSSGTDFMYFDRFLPTRWA | -0.805 ± 1.1
4 | YVSSNWRNFRSVSQWWMLHV | 1.57 ± 0.1
5 | VDICGTRGKRRYCSLRLFAW | -0.594 ± 1.1
6 | NRKRLWHYFLGTKDISIERV | inactive
7 | GSSWLRPALLVNAMIDWSRV | 0.934 ± 0.36
8 | MEYPRLRSHNTAIFTLFQRP | 5.38 ± 0.055
9 | LTFACSVLL | 3.1 ± 0.092
10 | WVSMVVCMVSYNSYFE | 5.48 ± 0.062
11 | VYWWVANV | 1.99 ± 0.26
12 | WYRLAFQLELPLFHRSYRRW | 0.288 ± 0.37
13 | TYSVLRHFRRES | 0.589 ± 0.31
14 | VNSVMARMITCTSVVGCKYW | -0.259 ± 0.19
15 | GKVGNNTLSVYGMDTT | inactive
16 | YYNKNLFCLFSVLEYKTTFL | 4.09 ± 0.056
17 | GYCQVKSGCCSGEECCFWMI | 3.68 ± 0.099
18 | FLMVVVGNVLPLSKCYALWY | -0.007 ± 0.55
19 | ASAPEYHQVKIYIFQFTPRA | 2.02 ± 0.094
20 | SETNMVHPYAIYLKVRYANN | 0.566 ± 0.24
21 | IPTFSSLCLMLRTEGPRVDI | -1.05 ± 1.1
22 | SIGKYLCYA | 2.38 ± 0.057

Row | Substance | amyloid nucleation score
23 | FRLIQWWARWIVFFGSTSLH | -0.804 ± 0.45
24 | SISGMRWSSNHQVRSVLGAT | 1.17 ± 0.33
25 | IVCQDFYTAWEYYTYAHR | 3.07 ± 0.048
26 | ARRCSFWYIISVQRF | inactive
27 | FLNMTIRVLAWFVYTI | inactive
28 | SFSESIPIIGGLRKAVSHTS | 0.413 ± 0.24
29 | MLNYAYSL | 1.42 ± 0.32
30 | YTGRSDVNSVLRV | 0.183 ± 1
31 | DTNVCHIYFGFELLSRFFCN | 0.252 ± 0.36
32 | FLSARHGRGFARGFSPP | inactive
33 | DGGNDWRTKYSGTPVVWGTV | 1.73 ± 0.13
34 | WSSERWPEWIG | 0.027 ± 0.24
35 | HASVHL | 0.497 ± 0.34
36 | STLWVAKGH | -0.064 ± 1.1
37 | VPSRGLF | 0.815 ± 0.4
38 | PNFRVVFCLRSV | 9.978 ± 0.024
39 | DCNTCKDKPWNAINQPNKKA | 0.121 ± 0.23
40 | TGSVREYCGEVPWRLCDDRV | 0.244 ± 0.62
41 | APWYIL | 0.225 ± 0.36
42 | DFTFWCEYSSSPVKKYVIDC | 0.736 ± 0.18
43 | KSKRMVTMHKMNENTGLLGD | 0.543 ± 0.5
44 | GNRIPVTRGLVKDRSKLVGV | 0.007 ± 1.1

Row | Substance | amyloid nucleation score
45 | GGTQLRTG | -0.961 ± 1.1
46 | RFDDASGDMVNAEG | 4.6 ± 0.05
47 | LRTISCIITLVGWITASTKH | 0.124 ± 0.62
48 | KMCIAKKSWEGQLVILYMSA | -0.354 ± 0.48
49 | DIFALYFA | -1.16 ± 0.63
50 | TVSYCVAYSMQQMLS | -0.072 ± 1.1
51 | SWLVDPTLGTRLSFTVMYRC | 0.053 ± 1.1
52 | VPQLSLQLVQRIFGFPSVIL | -0.288 ± 0.41
53 | CINRVRG | -0.398 ± 0.76
54 | CHRNFITCLYAMYSELVLVL | 0.648 ± 0.54
55 | YSSDYILSFNVNNTMVVSFE | 5.59 ± 0.078
56 | TCLGSRWLT | 0.653 ± 0.33
57 | KWNRWYVALCLVSV | 10.08 ± 0.03
58 | LVIMGVCGWSGL | 7.975 ± 0.038
59 | AFRGSYLKFSESTCTIGSLW | 2.12 ± 0.13
60 | STGRNMKPSLNASFLRLRMF | -0.228 ± 1.1
61 | GAYYSQ | -0.316 ± 0.46
62 | VCLCCYYIYYERFSNGFFLL | 5.02 ± 0.058
63 | GGNFLVCYVFDDSCHWIMMY | 4.56 ± 0.086
64 | DKYGFSSVSGVTEDFVDGLM | 0.736 ± 0.6
65 | DSLNCGSRCKSAGDSNRWSL | 0.11 ± 0.65
66 | IFMNPICFWSNRNFLVWSNN | 4.5 ± 0.059

Row | Substance | amyloid nucleation score
67 | QRIPWV | -0.509 ± 1.1
68 | IACLNKTFLFSCVNIYGLMT | 5.736 ± 0.037
69 | ELLYWCANHDAGIVRVEFWW | 1.48 ± 0.1
70 | TIGRSFYELPFYGAILFWMR | 1.45 ± 0.21
71 | PRMGFNDPARLGG | -1.34 ± 0.76
72 | MNIDLHTHPSRSKMLCTTAN | 0.914 ± 0.55
73 | CRCVR | 3.38 ± 0.077
74 | AAIIISLSYMI | 2.23 ± 0.075
75 | VLISSKYLIQSVDYILLNGP | -0.217 ± 0.29
76 | KNSVVL | 0.275 ± 0.64
77 | VMIMVEVNPWGRCGRRRERS | 9.613 ± 0.052
78 | LFYWLITENASNQTTMSVRE | -0.384 ± 0.54
79 | CRFRGLRYNRWDQNDVFAGV | 0.349 ± 0.44
80 | KALAYAWLCISLYKDFGYYN | inactive
81 | SWNIFPQSNLKSKWDTIRCL | -2.46 ± 0.62
82 | SRSGCHYCAVYTQIVLPRAP | 8.711 ± 0.081
83 | NVKNKKSVSLPYSKLMRGRE | -0.17 ± 0.65
84 | LRVWVTAFFFSVMMCEQMFQ | inactive
85 | NATLSSFYSLGNEMHSGHSV | -0.209 ± 0.48
